Reference: patent publication US20190202907A1 (180 THERAPEUTICS, published 2019)

Tests used:
cyno ST2L (cyno) = assay: affinity table; method not stated
human ST2L = molecular target: T1, human ST2L (human, UniProt Q01638 19-328, limits assumed); assay: affinity table; method not stated
T1 construct: also called IL-1R4; IL-33Ra
T1 sequence (looked up): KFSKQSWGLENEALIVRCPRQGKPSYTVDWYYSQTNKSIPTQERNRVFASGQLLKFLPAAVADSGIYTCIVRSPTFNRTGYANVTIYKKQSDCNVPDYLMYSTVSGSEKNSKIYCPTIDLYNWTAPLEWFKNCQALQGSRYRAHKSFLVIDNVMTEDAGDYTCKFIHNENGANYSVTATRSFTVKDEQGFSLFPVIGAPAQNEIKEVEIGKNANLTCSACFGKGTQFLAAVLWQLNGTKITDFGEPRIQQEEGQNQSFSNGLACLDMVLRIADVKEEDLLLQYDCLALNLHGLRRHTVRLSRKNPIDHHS

Kd (cyno ST2L (cyno)): 3 pM
koff (cyno ST2L (cyno)): 0.000264 s⁻¹
kon (cyno ST2L (cyno)): 7.89e+07 M⁻¹ s⁻¹
Kd (human ST2L): 16 pM
koff (human ST2L): 0.000158 s⁻¹
kon (human ST2L): 9.63e+06 M⁻¹ s⁻¹
B1: STLM216 (antibody, from another filing, V domains shown)
VH: EVQLLESGGGLVQPGGSLRLSCAASGFTFSSYDMFWVRQAPGKGLEWVSDIKGEGGATNYADSVKGRFTISRDNSKNTLYLQMNSLRAEDTAVYYCARDPWSTEGSFFVLDYWGQGTLVTVSS
VL: EIVLTQSPATLSLSPGERATLSCRASQSVDDDLAWYQQKPGQAPRLLIYDASNRATGIPARFSGSGSGTDFTLTISSLEPEDFAVYYCQQYIGAPITFGQGTKVEIK
